According to patent US20260216242A1 (ALMAC DISCOVERY, published 2026):
Numbering of substitutions follows the chain as printed.

T1: ALPI His homodimer (human, UniProt P09923 20-503)
T1 construct: Whole entry with His tag; used in ELISA and BLI; also called hALPI
T1 sequence: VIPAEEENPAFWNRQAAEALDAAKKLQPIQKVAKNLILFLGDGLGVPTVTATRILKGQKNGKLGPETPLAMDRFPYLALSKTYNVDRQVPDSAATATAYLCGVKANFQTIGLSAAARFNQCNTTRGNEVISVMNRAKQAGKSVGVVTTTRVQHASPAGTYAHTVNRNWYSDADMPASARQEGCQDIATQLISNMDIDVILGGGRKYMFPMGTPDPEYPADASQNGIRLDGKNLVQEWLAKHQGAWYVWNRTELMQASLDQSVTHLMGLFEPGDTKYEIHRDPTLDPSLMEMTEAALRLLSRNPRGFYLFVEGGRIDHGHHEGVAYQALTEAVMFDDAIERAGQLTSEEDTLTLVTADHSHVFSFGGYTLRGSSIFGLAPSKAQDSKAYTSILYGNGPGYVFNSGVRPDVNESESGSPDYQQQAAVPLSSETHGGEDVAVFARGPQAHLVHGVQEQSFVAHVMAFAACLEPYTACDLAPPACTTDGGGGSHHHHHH

T2: Human ALPP (leucine zipper) (human)
T2 construct: Whole entry: ALPP fused with a cysteine stabilised leucine zipper and His tag; also called hALPP
T2 chain: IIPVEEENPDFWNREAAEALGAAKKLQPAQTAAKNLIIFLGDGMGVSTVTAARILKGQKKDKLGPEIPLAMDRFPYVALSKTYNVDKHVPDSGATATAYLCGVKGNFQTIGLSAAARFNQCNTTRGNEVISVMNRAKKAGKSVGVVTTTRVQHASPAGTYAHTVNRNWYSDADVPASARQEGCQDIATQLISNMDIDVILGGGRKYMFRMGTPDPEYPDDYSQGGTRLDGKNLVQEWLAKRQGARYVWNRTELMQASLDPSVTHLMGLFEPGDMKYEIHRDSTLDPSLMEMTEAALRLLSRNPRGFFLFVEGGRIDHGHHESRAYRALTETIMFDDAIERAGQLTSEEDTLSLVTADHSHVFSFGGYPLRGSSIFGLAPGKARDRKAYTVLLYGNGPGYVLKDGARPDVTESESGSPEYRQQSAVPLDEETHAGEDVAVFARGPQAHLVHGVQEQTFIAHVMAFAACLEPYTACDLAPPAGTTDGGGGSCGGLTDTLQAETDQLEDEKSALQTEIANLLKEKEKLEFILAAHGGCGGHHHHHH

T3: human ALPI on CHO cells (human, UniProt P09923 20-503)
T3 construct: whole, on cells; also called CHO-ALPI
T3 sequence (looked up): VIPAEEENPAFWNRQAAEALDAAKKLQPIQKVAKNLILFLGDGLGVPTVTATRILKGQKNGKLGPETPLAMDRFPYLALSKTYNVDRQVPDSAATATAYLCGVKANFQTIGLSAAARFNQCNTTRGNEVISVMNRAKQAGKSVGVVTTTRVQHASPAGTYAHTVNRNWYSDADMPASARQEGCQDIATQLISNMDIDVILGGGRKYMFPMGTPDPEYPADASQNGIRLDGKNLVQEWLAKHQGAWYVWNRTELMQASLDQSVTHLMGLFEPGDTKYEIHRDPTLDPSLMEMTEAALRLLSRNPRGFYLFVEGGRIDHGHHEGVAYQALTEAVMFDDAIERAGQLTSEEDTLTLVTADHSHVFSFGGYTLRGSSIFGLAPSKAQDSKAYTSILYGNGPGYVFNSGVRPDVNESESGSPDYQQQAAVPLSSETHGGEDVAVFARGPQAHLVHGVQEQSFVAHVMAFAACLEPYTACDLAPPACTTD

B1: A06 His (VHH, not shown: small tags and cut ends)
VHH: QVHLVESGGGLVQAGGSLRLSCAASGRTFLSMGWFRQAPGKEREFVAAISWTGGSTGYADSVKGRFTISRESDKETMYLQMNSLKPEDTAVYYCAARGDVYYGGDDATRYKYWGQGTQVTVSS
notes: also called #250
B2: C07 His (VHH, not shown: small tags and cut ends)
VHH: QVQLVESGGGLVQAGESLRLACAASGTIFSGNAVGWYRQAPEKQREWVSSITDYGDTDYAEAVKGRFTISRDNAKNTVYLQMNSLKPEDTAVYYCYVYQRGESEEYWGQGTQVTVSS
notes: also called #258
B3: D10 His (VHH, not shown: small tags and cut ends)
VHH: QVQLVESGGGLVQPGGSLRLSCAASGSIFSVNTMGWYRQAPGKQRDLVAVATSGGTIHYADSVKGRFTISRDNAKNTVYLQMNSLKPEDTAVYYCNLVVPYGMIAGDHDYWGQGTKVTVSS
B4: A05 His (VHH, not shown: small tags and cut ends)
VHH: QVQLVESGGGLVQAGASLTLSCAASGFTFNTRSIVWFRQAPGKEREAVSCISKVAGSTYYGDSVQGRFSSSTDNAKNTVSLQMNSLKPEDTAVYTCAASFAPNCYGWSVAANMEYWGEGTMVTVSS
notes: also called #249
B5: E06 His (VHH, not shown: small tags and cut ends)
VHH: QVHLVESGGGLVQAGGSLRLSCAASRRSFSEYAMGWFRQAPGKEREFVAAIGWSGVIEYADSVKGRFTISRDNAKDTVYLQMNSLKPEDTAVYYCAAGLGIRVVSQTPAYWGQGTQVTVSS
B6: E10 His (VHH, not shown: small tags and cut ends)
VHH: QVQLVESGGGLVQAGGSLRLSCAVSGRALSDYNIGWFRQAPGKEREFVARKTWDGSSTRYDDSVKGRFTVSIEDAKNTAYLQMSSLKTEDTAVYYCAAGRYSRARGWEYDYWGQGTQVTVSS
notes: also called #265
B7: F05 His (VHH, not shown: small tags and cut ends)
VHH: B6 VHH with V24A, L29F, S30G, K51R, E73D, D74N, S84N, A104V
B8: D04 His (VHH, not shown: small tags and cut ends)
VHH: QVQLVESGGGLVQPGGSLRLSCAASESTFSINVMGWYRQAPGKQRELVATITSGDITNYADSVKGRFTISRDNAENTVYLRTNSLKPEDTAVYYCNARGEYHSGNEYDYWGQGTQVTVSS
B9: F08 His (VHH, not shown: small tags and cut ends)
VHH: QVQLVESGGGSVQAGGSLRLSCAASGPSLSNYAMGWFRQAPGKEREFVAGISWGGGRTSYTDSVKGRFTISRDNAKNTVYLQMNNLKPEDTGVYYCAGRYGRGRNVEYEYDYWGQGTQVTVSS
notes: also called #269

Target: T1, ALPI His homodimer
Assay: ELISA, antigen coated
Description: ELISA was used to test the binding and specificity of the VHHs. […] Anti-Llama—HRP antibody was used for detection.

| Binder | binding result |
| --- | --- |
| B1 | no binding (tested: 500 ng VHH) |
| B2 | no binding (tested: 500 ng VHH) |
| B3 | no binding (tested: 500 ng VHH) |
| B4 | no binding (tested: 500 ng VHH) |
| B5 | no binding (tested: 500 ng VHH) |
| B6 | no binding (tested: 500 ng VHH) |
| B7 | no binding (tested: 500 ng VHH) |

Target: T2, Human ALPP (leucine zipper)
Assay: BLI, antigen immobilised
Protocol: Binding kinetics were determined using the Biolayer Interferometry (BLI) Octet K2 system (Sartorius). […] All assays were conducted in PBS with a plate temperature of 25° C. Ka (M⁻¹s⁻¹), Kd (s⁻¹) and KD (nM) values were determined using Octet Data Analysis High Throughput software (ForteBio) for Biolayer Interferometry.

| Binder | Kd [nM] | koff [s⁻¹] | kon [M⁻¹ s⁻¹] |
| --- | --- | --- | --- |
| B1 | 1.32 | 0.000154 | 117000 |
| B2 | 0.22 | 2.8e-05 | 129000 |
| B8 | < 0.01 | < 1e-07 | 85100 |
| B3 | 0.2 | 1.3e-05 | 67300 |
| B4 | < 0.01 | < 1e-07 | 260000 |
| B5 | < 0.01 | < 1e-07 | 106000 |
| B6 | < 0.01 | < 1e-07 | 54200 |
| B7 | < 0.01 | < 1e-07 | 13900 |
| B9 | < 0.01 | < 1e-07 | 252000 |

Target: T3, human ALPI on CHO cells
Assay: flow cytometry, CHO cells stably expressing human ALPI; His6-tagged VHH detected with anti-His tag Ab and FITC anti-mouse Ab
Protocol: C-terminal His tagged VHH proteins were assessed for ALPP, ALPPL2, ALPI and ALPL cell-surface binding by flow cytometry. Binders encompassing different epitope bins were screened on CHO cells stably expressing ALPP, ALPPL2, ALPI or ALPL. High levels of cell-surface proteins expression were confirmed for each of the cell-lines by flow cytometry.
(§1) Cell surface binding of test agents to hALPP isoforms was characterized in four CHO-ALPP isoform stably transfected cell lines (CHO-ALPP, CHO-ALPPL2, CHO-ALPI and CHO-ALPL) and the resulting KDapp values determined. Adherent cells were detached from tissue culture flasks by incubating with 0.1% EDTA/PBS solution at 37° C. for ~10 minutes or until cells detached easily. Cells were re-suspended in ice-cold PBS/2% FCS in 15 ml tubes and centrifuged at 1700 rpm for 5 mins at 4° C. Supernatant was removed and the cell pellet re-suspended in PBS/2% FCS. […] Cells were incubated with 100 μl of test agents at a range of concentrations, plus controls for 1 hr on ice. The sample plate was centrifuged at 1700 rpm for 5 mins at 4° C. The supernatant was removed, and a wash performed by re-suspending the cell pellets in 0.25 mL of ice-cold PBS/2% FCS using a multichannel pipette. Samples were again centrifuged at 1700 rpm for 5 min at 4° C. Supernatant was removed and two further washes performed as described. After the final wash and centrifugation step, excess liquid was removed by blotting the plate on tissue paper. Binding of VHH (His6 tagged) agents was determined by adding 100 μl of anti-x6His tag Ab (Abcam) per cell pellet sample as appropriate and incubating on ice for 30 mins. Wash steps were performed as described previously. Fitc-anti-mouse antibody (ThermoFisher) was used to detect binding of the VHH (His6 tagged) agents by incubating with the appropriate samples for 30 min on ice in the dark. Wash steps were performed as described previously. All cell pellets were finally re-suspended in […] of ice-cold PBS/2% FCS and left on ice in the dark prior to analysis on a Merck-Millipore Guava EasyCyte HT or Thermo Fisher Attune N×T flow cytometer.

| Binder | binding result |
| --- | --- |
| B1 | no binding (tested: 350 nM) |
| B2 | no binding (tested: 350 nM) |
| B3 | no binding (tested: 350 nM) |
| B4 | no binding (tested: 350 nM) |
| B5 | no binding (tested: 350 nM) |
| B6 | no binding (tested: 350 nM) |
| B7 | no binding (tested: 350 nM) |

Target: T4, human ALPP on CHO cells (human, UniProt P05187 23-506)
T4 construct: whole, on cells; also called CHO-ALPP
Assay: flow cytometry, CHO cells, KDapp
Protocol: as §1

| Binder | Kd [nM] |
| --- | --- |
| B1 | 42.4 |
| B2 | 3.5 |
| B8 | 4.2 |
| B3 | 3.4 |
| B4 | 3.8 |
| B5 | 4.6 |
| B6 | 3.5 |
| B7 | 2.3 |
| B9 | 5 |

Target: T5, human ALPPL2 on CHO cells (human, UniProt P10696 20-503)
T5 construct: whole, on cells; also called CHO-ALPPL2
T5 sequence (P10696 20-503): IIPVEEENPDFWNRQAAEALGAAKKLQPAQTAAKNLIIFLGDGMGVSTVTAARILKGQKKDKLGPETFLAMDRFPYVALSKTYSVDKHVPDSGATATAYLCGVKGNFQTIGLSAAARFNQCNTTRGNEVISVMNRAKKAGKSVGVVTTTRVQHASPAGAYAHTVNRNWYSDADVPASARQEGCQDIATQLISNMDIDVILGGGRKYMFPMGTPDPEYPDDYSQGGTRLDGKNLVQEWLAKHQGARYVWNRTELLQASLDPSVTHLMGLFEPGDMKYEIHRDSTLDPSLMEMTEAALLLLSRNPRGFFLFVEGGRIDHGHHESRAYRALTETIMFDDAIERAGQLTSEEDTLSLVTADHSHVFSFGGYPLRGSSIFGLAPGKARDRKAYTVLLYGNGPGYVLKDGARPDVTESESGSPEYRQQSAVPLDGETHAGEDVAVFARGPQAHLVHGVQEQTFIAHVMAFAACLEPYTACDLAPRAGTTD
Assay: flow cytometry, CHO cells, KDapp
Protocol: as §1

| Binder | Kd [nM] |
| --- | --- |
| B1 | 28.3 |
| B2 | 5.1 |
| B8 | 19.5 |
| B4 | 6 |
| B5 | 4.9 |
| B6 | 3.8 |
| B7 | 1.8 |
| B9 | 3.3 |
